{"source": "patent US6391305", "key": {"[1]": {"test_system": "2-hydroxyacetyl-SSChgQ-SL-acid"}, "[2]": {"test_system": "(l)2,3-dihydroxypropionyl-SSSChgQ-SL-acid"}, "[3]": {"test_system": "2-hydroxyacetylhRYQ-SL-acid"}, "[4]": {"test_system": "2-hydroxyacetyl-hRSSYQ-SL-acid"}, "[5]": {"test_system": "(l)2,3-dihydroxypropionyl-SSChgQ-SL-DOX (3′)"}, "[6]": {"test_system": "PEG(2)-SHomoRYQ-SL-DOX(3′)"}, "[7]": {"test_system": "PEG(6)-ASChgQ-SL-DOX (3′)"}, "[8]": {"test_system": "2-hydroxyacetyl-hRASChgQ-SL-acid"}, "[9]": {"test_system": "2(S)-2,3-dihydroxy-propionyl ShRChgQSL-acid"}, "[10]": {"test_system": "2-hydroxyacetyl-HomoRSSYQ-SL-DOX (3′)"}, "[11]": {"test_system": "(d)2,3-dihydroxypropionyl-3PAL-SSChgQSL-acid"}, "[12]": {"test_system": "(d)2,3-dihydroxypropionyl-SHomoRChgQ-SL-DOX (3′)"}, "[13]": {"test_system": "PEG(4)-β-PAL-SSChgQ-SL-acid"}, "[14]": {"test_system": "2,3-dihydroxypropionyl-hSSSChgQ-SL-acid"}, "[15]": {"test_system": "2-hydroxyacetyl-SSSChgQ-SL-DOX (3′)"}, "[16]": {"test_system": "2-hydroxyacetyl-SHomoRChgQ-SL-DOX (3′)"}, "[17]": {"test_system": "(d)2,3-dihydroxypropionyl-HomoRSSChgQSL-DOX (3′)"}, "[18]": {"test_system": "2,3-dihydroxypropionyl-SSSChgQ-SL-acid"}, "[19]": {"test_system": "2,3-dihydroxypropionyl-ShRChgQ-SL-acid"}, "[20]": {"test_system": "PEG(2)-SHomoRYQ-SL-DOX (3′)"}, "[21]": {"test_system": "(d)2,3-dihydroxypropionyl-3PALSSChgQ-SL-DOX (3′).AcOH"}, "[22]": {"test_system": "2-hydroxyacetyl-HomoRSSYQ-SNle-DOX (3′)"}, "[23]": {"test_system": "2-hydroxyacetyl-HomoRSSChgQ-SL-DOX (3′)"}, "[24]": {"test_system": "2-hydroxyacetyl-hRSSYQ-SNle-acid"}, "[25]": {"test_system": "2,3-dihydroxypropionyl-ShRYQ-SL-acid"}, "[26]": {"test_system": "(2R,3S) 2,3,4-trihydroxybutanoyl-SHomoRChgQ-SL-DOX (3′)"}, "[27]": {"test_system": "(d)2,3-dihydroxypropionylSSSChgQ-SL-DOX (3′)"}, "[28]": {"test_system": "PEG(2)-ASChgQ-SL-DOX (3′)"}, "[29]": {"test_system": "PEG(2)-3PAL-SSChgQ-SL-acid"}, "[30]": {"test_system": "(l)2,3-dihydroxypropionyl-HomoRSSChgQ-SL-DOX (3′)"}, "[31]": {"test_system": "(l)2,3-dihydroxypropionyl-SHomoRChgQ-SL-DOX (3′)"}, "[32]": {"test_system": "PEG(2)-HomoRSSChgQ-SL-DOX (3′)"}, "[33]": {"test_system": "(d)2,3-dihydroxypropionylSSChgQ-SL-DOX (3′)"}, "[34]": {"test_system": "PEG(2)-SSSChgQ-SL-DOX (3′)"}, "[35]": {"test_system": "(2R,3S) 2,3,4-trihydroxybutanoyl-ShRChgQ-SL-acid"}, "[36]": {"test_system": "PEG(16)-SHomoRYQ-SL-DOX (3′)"}, "[37]": {"test_system": "2-hydroxyacetyl-HomoRASChgQ-SL-DOX (3′)"}, "[38]": {"test_system": "2,3-dihydroxypropionyl-HomoSSSChgQ-SL-DOX (3′)"}, "[39]": {"test_system": "(l)2,3-dihydroxypropionyl-3PAL-SSChgQ-SL-acid"}, "[40]": {"test_system": "2,3-dihydroxypropionyl-GSSChgQ-SL-acid"}, "[41]": {"test_system": "2-hydroxyacetyl-SSChgQ-SL-DOX (3′)"}, "[42]": {"test_system": "(l)2,3-dihydroxypropionylSSSChgQ-S(dL)-DOX (3′)"}, "[43]": {"test_system": "(l)2,3-dihydroxypropionyl-SSChgQ-SL-acid"}, "[44]": {"test_system": "PEG(2)-SHomoRChgQ-SL-DOX (3′)"}, "[45]": {"test_system": "(l)2,3-dihydroxypropionylSSSChgQ-SL-DOX (3′)"}, "[46]": {"test_system": "2(S)2,3-dihydroxypropionyl-hRSSChgQ-SL-acid"}}, "note": "Where “and” joins values, the source holds several entries; their conditions need not be identical. Equal entries are not always repeated."}
{"substance": "free prostate specific antigen (PSA)", "values": [{"measurement": "Time to 50% Substrate Cleavage by York PSA", "setting": "PEG(2)-hRSSChgQ-SL-acid", "result": 40, "unit": "min"}, {"measurement": "Time to 50% Substrate Cleavage by York PSA", "setting": "[1]", "result": 180, "unit": "min"}, {"measurement": "Time to 50% Substrate Cleavage by York PSA", "setting": "[2]", "result": "80 min and 110 min"}, {"measurement": "Time to 50% Substrate Cleavage by York PSA", "setting": "[3]", "result": 105, "unit": "min"}, {"measurement": "Time to 50% Substrate Cleavage by York PSA (Min)", "setting": "[4]", "result": "35 (PP)"}, {"measurement": "Time to 50% Substrate Cleavage by York PSA", "setting": "PEG(2)SSSChgQ-SL-acid", "result": 150, "unit": "min"}, {"measurement": "Time to 50% Substrate Cleavage by York PSA", "setting": "PEG(2)SSChgQ-SL-DOX (3′)", "result": 90, "unit": "min"}, {"measurement": "Time to 50% Substrate Cleavage by York PSA", "setting": "[5]", "result": 25, "unit": "min"}, {"measurement": "Time to 50% Substrate Cleavage by York PSA", "setting": "[6]", "result": 35, "unit": "min"}, {"measurement": "Time to 50% Substrate Cleavage by York PSA", "setting": "[7]", "result": 160, "unit": "min"}, {"measurement": "Time to 50% Substrate Cleavage by York PSA", "setting": "PEG(14)ShRYQ-SL-acid", "result": 40, "unit": "min"}, {"measurement": "Time to 50% Substrate Cleavage by York PSA", "setting": "[8]", "result": 70, "unit": "min"}, {"measurement": "Time to 50% Substrate Cleavage by York PSA", "setting": "[9]", "result": 35, "unit": "min"}, {"measurement": "Time to 50% Substrate Cleavage by York PSA (Min)", "setting": "[10]", "result": "16 (PS)"}, {"measurement": "Time to 50% Substrate Cleavage by York PSA", "setting": "[11]", "result": 80, "unit": "min"}, {"measurement": "Time to 50% Substrate Cleavage by York PSA", "setting": "PEG(1)-ShRChgQ-SL-acid", "result": 120, "unit": "min"}, {"measurement": "Time to 50% Substrate Cleavage by York PSA", "setting": "[12]", "result": 65, "unit": "min"}, {"measurement": "Time to 50% Substrate Cleavage by York PSA", "setting": "[13]", "result": 60, "unit": "min"}, {"measurement": "Time to 50% Substrate Cleavage by York PSA", "setting": "[14]", "result": 160, "unit": "min"}, {"measurement": "Time to 50% Substrate Cleavage by York PSA", "setting": "[15]", "result": 25, "unit": "min"}, {"measurement": "Time to 50% Substrate Cleavage by York PSA (Min)", "setting": "Ac-hRSSYQ-SNle-acid", "result": "25 (PS)"}, {"measurement": "Time to 50% Substrate Cleavage by York PSA", "setting": "[16]", "result": 15, "unit": "min"}, {"measurement": "Time to 50% Substrate Cleavage by York PSA", "setting": "[17]", "result": 12, "unit": "min"}, {"measurement": "Time to 50% Substrate Cleavage by York PSA", "setting": "PEG(1)-ShRYQ-SL-acid", "result": 90, "unit": "min"}, {"measurement": "Time to 50% Substrate Cleavage by York PSA", "setting": "PEG(18)ShRYQ-SL-acid", "result": 40, "unit": "min"}, {"measurement": "Time to 50% Substrate Cleavage by York PSA", "setting": "Ac-hRASChgQ-SL-acid", "result": 50, "unit": "min"}, {"measurement": "Time to 50% Substrate Cleavage by York PSA", "setting": "[18]", "result": 120, "unit": "min"}, {"measurement": "Time to 50% Substrate Cleavage by York PSA", "setting": "PEG(1)-hRSSChgQ-SL-acid", "result": 30, "unit": "min"}, {"measurement": "Time to 50% Substrate Cleavage by York PSA", "setting": "[19]", "result": 75, "unit": "min"}, {"measurement": "Time to 50% Substrate Cleavage by York PSA", "setting": "[20]", "result": 60, "unit": "min"}, {"measurement": "Time to 50% Substrate Cleavage by York PSA (Min)", "setting": "[21]", "result": "12 (PS)"}, {"measurement": "Time to 50% Substrate Cleavage by York PSA", "setting": "[22]", "result": 60, "unit": "min"}, {"measurement": "Time to 50% Substrate Cleavage by York PSA", "setting": "[23]", "result": 12, "unit": "min"}, {"measurement": "Time to 50% Substrate Cleavage by York PSA", "setting": "[24]", "result": 45, "unit": "min"}, {"measurement": "Time to 50% Substrate Cleavage by York PSA", "setting": "PEG(2)-S-hRChgQ-SL-acid", "result": 30, "unit": "min"}, {"measurement": "Time to 50% Substrate Cleavage by York PSA", "setting": "[25]", "result": "35 min and 50 min"}, {"measurement": "Time to 50% Substrate Cleavage by York PSA", "setting": "[26]", "result": 45, "unit": "min"}, {"measurement": "Time to 50% Substrate Cleavage by York PSA", "setting": "AchRSSChgQ-SL-acid", "result": "120 min and 45 min"}, {"measurement": "Time to 50% Substrate Cleavage by York PSA", "setting": "[27]", "result": 55, "unit": "min"}, {"measurement": "Time to 50% Substrate Cleavage by York PSA", "setting": "PEG(2)-ShRYQ-SL-acid", "result": 35, "unit": "min"}, {"measurement": "Time to 50% Substrate Cleavage by York PSA", "setting": "[28]", "result": 45, "unit": "min"}, {"measurement": "Time to 50% Substrate Cleavage by York PSA", "setting": "[29]", "result": 80, "unit": "min"}, {"measurement": "Time to 50% Substrate Cleavage by York PSA", "setting": "[30]", "result": 12, "unit": "min"}, {"measurement": "Time to 50% Substrate Cleavage by York PSA", "setting": "[31]", "result": 15, "unit": "min"}, {"measurement": "Time to 50% Substrate Cleavage by York PSA", "setting": "[32]", "result": 11, "unit": "min"}, {"measurement": "Time to 50% Substrate Cleavage by York PSA", "setting": "PEG(19)ShRYQ-SL-acid", "result": 60, "unit": "min"}, {"measurement": "Time to 50% Substrate Cleavage by York PSA", "setting": "[33]", "result": 120, "unit": "min"}, {"measurement": "Time to 50% Substrate Cleavage by York PSA", "setting": "PEG(17)-ShRYQ-SL-acid", "result": 55, "unit": "min"}, {"measurement": "Time to 50% Substrate Cleavage by York PSA", "setting": "[34]", "result": 60, "unit": "min"}, {"measurement": "Time to 50% Substrate Cleavage by York PSA", "setting": "[35]", "result": 90, "unit": "min"}, {"measurement": "Time to 50% Substrate Cleavage by York PSA", "setting": "PEG(15)-ShRYQ-SL-acid", "result": 40, "unit": "min"}, {"measurement": "Time to 50% Substrate Cleavage by York PSA (Min)", "setting": "Ac-hR(CHA)Q-SNle-acid", "result": "200 (PS)"}, {"measurement": "Time to 50% Substrate Cleavage by York PSA", "setting": "Ac-ANKASYQ-SL-acid", "result": "135 min and 220 min"}, {"measurement": "Time to 50% Substrate Cleavage by York PSA", "setting": "[36]", "result": 65, "unit": "min"}, {"measurement": "Time to 50% Substrate Cleavage by York PSA", "setting": "PEG(16)-ShRYQ-SL-acid", "result": 40, "unit": "min"}, {"measurement": "Time to 50% Substrate Cleavage by York PSA", "setting": "[37]", "result": 10, "unit": "min"}, {"measurement": "Time to 50% Substrate Cleavage by York PSA", "setting": "(OH-Ac)SSSChgQ-SL-acid", "result": 120, "unit": "min"}, {"measurement": "Time to 50% Substrate Cleavage by York PSA", "setting": "[38]", "result": 35, "unit": "min"}, {"measurement": "Time to 50% Substrate Cleavage by York PSA", "setting": "[39]", "result": 70, "unit": "min"}, {"measurement": "Time to 50% Substrate Cleavage by York PSA", "setting": "[40]", "result": 160, "unit": "min"}, {"measurement": "Time to 50% Substrate Cleavage by York PSA", "setting": "[41]", "result": 45, "unit": "min"}, {"measurement": "Time to 50% Substrate Cleavage by York PSA", "setting": "[42]", "result": 180, "unit": "min"}, {"measurement": "Time to 50% Substrate Cleavage by York PSA (Min)", "setting": "Ac-ShRYQ-SNle-acid", "result": "25 (PS)"}, {"measurement": "Time to 50% Substrate Cleavage by York PSA", "setting": "[43]", "result": 180, "unit": "min"}, {"measurement": "Time to 50% Substrate Cleavage by York PSA", "setting": "[44]", "result": 25, "unit": "min"}, {"measurement": "Time to 50% Substrate Cleavage by York PSA", "setting": "[45]", "result": 25, "unit": "min"}, {"measurement": "Time to 50% Substrate Cleavage by York PSA", "setting": "[46]", "result": 25, "unit": "min"}]}
